# Several values for one entry are separate records, joined by “and”; a condition that tells them apart may be missing. Equal entries are not always repeated.
# B1: Sig-7 R124A: Siglec-7-Fc essential arginine mutant (protein, UniProt Q9Y286 19-353, looked up, variant R124A)
# extracellular domain: QKSNRKDYSLTMQSSVTVQEGMCVHVRCSFSYPVDSQTDSDPVHGYWFRAGNDISWKAPVATNNPAWAVQEETRDRFHLLGDPQTKNCTLSIRDARMSDAGRYFFAMEKGNIKWNYKYDQLSVNVTALTHRPNILIPGTLESGCFQNLTCSVPWACEQGTPPMISWMGTSVSPLHPSTTRSSVLTLIPQPQHHGTSLTCQVTLPGAGVTTNRTIQLNVSYPPQNLTVTVFQGEGTASTALGNSSSLSVLEGQSLRLVCAVDSNPPARLSWTWRSLTLYPSQPSNPLVLELQVHLGDEGEFTCRAQNSLGSQHVSLNLSLQQEYTGKMRPVSGVLL
# modifications: extracellular domain fused to human IgG1 Fc
# notes: Siglec-7-Fc essential arginine mutant
# B2: CD33-Fc R119A (protein, UniProt P20138 18-259, looked up, variant R119A)
# extracellular domain: DPNFWLQVQESVTVQEGLCVLVPCTFFHPIPYYDKNSPVHGYWFREGAIISRDSPVATNKLDQEVQEETQGRFRLLGDPSRNNCSLSIVDARRRDNGSYFFAMERGSTKYSYKSPQLSVHVTDLTHRPKILIPGTLEPGHSKNLTCSVSWACEQGTPPIFSWLSAAPTSLGPRTTHSSVLIITPRPQDHGTNLTCQVKFAGAGVTTERTIQLNVTYVPQNPTTGIFPGDGSGKQETRAGVVH
# modifications: extracellular domain fused to human IgG1 Fc
# Legend:
# [1] = tested on: peripheral blood immune cells; test: Comparison of 2-step and pre-complexed Siglec-Fc binding, flow cytometry (Figure 3e-g); assay type: cell-based, human; details: Figure 3f; 2-Step; listed as Siglec-7-Fc R124A
# [2] = tested on: B-cells (CD19+), human splenocytes; test: Siglec-Fc binding to splenocytes, flow cytometry; assay type: cell-based; details: Suppl Fig 12; three replicate columns
# Method: (§1) For human splenocytes, the sample was homogenized in media through a 40 µm filter (Corning) under sterile conditions. Samples were centrifuged at 300 rcf for 5 min. The resulting pellet from the spleen sample and whole human blood were treated with RBC lysis buffer (7 min) and centrifuged at 300 rcf and the RBC lysis was repeated twice more until no RBC remained in the pellet. Samples were treated with human Fc-receptor blocking agent (TruStain FX, Biolegend) in flow buffer (HBSS, 0.1% BSA, 5 mM EDTA). For analysis, the following cocktail was used: hSig8 (PerCP/Cy5.5, clone 7C9, Biolegend cat. no. 347108, 1:200), hCD123 (PE/Cy7, clone 6H6, Biolegend cat. no. 306010, 1:200), hCD19 (PE, clone SJ25C1, Biolegend cat. no. 363004, 1:200), hCD3 (FITC, BD Pharmingen cat. no. 555332, 1:50), hCD14 (BV605, clone M5E2, BD Horizon cat. no. 564056, 1:200), hCD15 (BUV395, clone HI98, BD Horizon cat. no. 563872, 1:200), hCD56 (BV510, clone NCAM16.2, BD Horizon cat. no. 563041, 1:200). For human peripheral blood samples, we additionally used hHLA-DR (APC-Cy7, clone L243, Biolegend cat. no. 307618, 1:200). Pre-complexed Siglec-Fc/Strep-Tactin-AF647 (described above) was added to the antibody cocktail, added to cells, and allowed to stain at 4 °C for 45 min. The cells were then centrifuged at 300 rcf for 5 min and resuspended in flow buffer containing 1 µg/mL propidium iodide prior to analysis by flow cytometry.
# (§2) Flow cytometry was performed on a BD LSRFortessa™ X-20 cell analyzer using BD FACSDiva Software Version 8.0.1 and data was processed using FlowJo LLC. Version 9.9.6 and Graphpad Prism 8. The live, single cell populations were gated out with two gates to obtain the median fluorescence intensity (MFI), which indicates binding of the Siglec-Fc-secondary complex to the cell surface. Control cells that were incubated with Strep-Tactin-AF647 (0.55 μg/mL, 0.57 pmol) was used to determine the baseline fluorescence. Number of cells (# cells) plotted indicates percentage of max (% max).
# [3] = tested on: monocytes (CD14+), human splenocytes; test: Siglec-Fc binding to splenocytes, flow cytometry; assay type: cell-based; details: Suppl Fig 12; three replicate columns
# Method: as §1, §2
# [4] = tested on: T-cells (CD3+), human splenocytes; test: Siglec-Fc binding to splenocytes, flow cytometry; assay type: cell-based; details: Suppl Fig 12; three replicate columns
# Method: as §1, §2
# [5] = tested on: NK cells (CD56+), human splenocytes; test: Siglec-Fc binding to splenocytes, flow cytometry; assay type: cell-based; details: Suppl Fig 12; three replicate columns
# Method: as §1, §2
# [6] = tested on: cDCs (CD123dim/HLA-DR+); test: Siglec ligands on peripheral blood immune cells, flow cytometry; assay type: cell-based, human; details: cDC; replicate values
# Method: as §1, §2
# [7] = tested on: pDCs (CD123high/HLA-DR+); test: as above; assay type: cell-based, human; details: pDC; replicate values
# Method: as §1, §2
# [8] = tested on: NK cells (CD56+); test: as above; assay type: cell-based, human; details: replicate values
# Method: as §1, §2
# [9] = tested on: T-cells (CD3+); test: as above; assay type: cell-based, human; details: replicate values
# Method: as §1, §2
# [10] = tested on: B-cells (CD19+); test: as above; assay type: cell-based, human; details: replicate values
# Method: as §1, §2
# [11] = tested on: neutrophils (CD15+); test: as above; assay type: cell-based, human; details: replicate values
# Method: as §1, §2
# [12] = tested on: neutrophils (CD15+), human splenocytes; test: Siglec-Fc (CD22-Fc V1/V2, with or without Fc receptor block) binding to splenocytes, flow cytometry; assay type: cell-based; details: Suppl Fig 12; three replicate columns
# Method: as §1, §2
# [13] = tested on: eosinophils (Siglec-8+); test: Siglec ligands on peripheral blood immune cells, flow cytometry; assay type: cell-based, human; details: replicate values
# Method: (§3) Siglec supernatant (50 μL) or purified Siglec was incubated with cells in a 96-well U-bottom plate for 30 min at 4 °C. Following the incubation, 200 μL of flow buffer (HBSS, 0.1% BSA, 5 mM EDTA) was added and the plate was spun down at 300 rcf for 5 min. Strep-Tactin-AF647 (0.55 μg/mL, 50 μL, 0.57 pmol), streptavidin (Biolegend), or anti-human IgG1 (Biolegend) was added to the cells and incubated for 30 min at 4 °C. After, 200 μL of flow buffer (HBSS, 0.1% BSA, 5 mM EDTA) was added and the plate was spun down at 300 rcf for 5 min. The cells were resuspended in 200 μL of flow buffer and processed through the flow cytometer.
# (§4) Strep-Tactin-AF647 (0.55 μg/mL, 0.57 pmol), streptavidin (Biolegend), or anti-human igG1 (Biolegend) was added to Siglec supernatant (50 μL) or purified Siglec and allowed to sit at 4 °C for 15 min. After, the pre-complexed solution was added to cells in a 96-well U-bottom plate for 30 min at 4 °C. After, 200 μL of flow buffer (HBSS, 0.1% BSA, 5 mM EDTA) was added and the plate was spun down at 300 rcf for 5 min. The cells were resuspended in 200 μL of flow buffer and processed through the flow cytometer.
# as §1, §2
# [14] = tested on: monocytes (CD14+); test: as above; assay type: cell-based, human; details: replicate values
# Method: as §3, §4, §1, §2
# [15] = tested on: basophils (CCR3+); test: as above; assay type: cell-based, human; details: replicate values
# Method: as §3, §4, §1, §2
# [16] = tested on: U937 cells; test: Flow cytometry, Siglec-Fc pre-complexed with Strep-Tactin, streptavidin or anti-human IgG1; assay type: cell-based; details: U937; Strep-Tactin-AF647; replicates, Fig. 2
# Method: as §4, §2
# [17] = tested on: HEK293T cells; test: Flow cytometry, pre-complexed Siglec-Fc binding; assay type: cell-based; details: HEK; Strep-Tactin-AF647; replicates
# Method: as §4, §2
# [18] = tested on: K562 cells; test: Flow cytometry, pre-complexed Siglec-Fc binding; assay type: cell-based; details: Strep-Tactin-AF647, replicates
# Method: as §4, §2
# [19] = tested on: A549 cells; test: Flow cytometry, pre-complexed Siglec-Fc binding; assay type: cell-based; details: Strep-Tactin-AF647, replicates
# Method: as §4, §2
# [20] = tested on: HuH7 cells; test: Flow cytometry, pre-complexed Siglec-Fc binding; assay type: cell-based; details: Strep-Tactin-AF647, replicates
# Method: as §4, §2
# [21] = tested on: Jurkat cells; test: Flow cytometry, pre-complexed Siglec-Fc binding; assay type: cell-based; details: Strep-Tactin-AF647, replicates
# Method: as §4, §2
# [22] = tested on: MCF7; test: Flow cytometry, pre-complexed Siglec-Fc binding to breast cancer cell line; assay type: cell-based; details: Strep-Tactin-AF647, replicates
# Method: as §4, §2
# [23] = tested on: HS578T; test: as above; assay type: cell-based; details: Strep-Tactin-AF647, replicates
# Method: as §4, §2
# [24] = tested on: T47D; test: as above; assay type: cell-based; details: Strep-Tactin-AF647, replicates
# Method: as §4, §2
# [25] = tested on: MDA-MB-468; test: as above; assay type: cell-based; details: Strep-Tactin-AF647, replicates
# Method: as §4, §2
# [26] = tested on: MDA-MB-231; test: as above; assay type: cell-based; details: Strep-Tactin-AF647, replicates
# Method: as §4, §2
# [27] = tested on: BT549; test: as above; assay type: cell-based; details: Strep-Tactin-AF647, replicates
# Method: as §4, §2
# [28] = tested on: ZR-75-1; test: as above; assay type: cell-based; details: Strep-Tactin-AF647, replicates
# Method: as §4, §2
# [29] = tested on: human peripheral blood monocytes; test: CD33-Fc binding to monocytes treated with Neu-S or Neu-A; assay type: cell-based; details: Figure 6c; WT (no neuraminidase)
# Method: as §4
# For human splenocytes, the sample was homogenized in media through a 40 µm filter (Corning) under sterile conditions. Samples were centrifuged at 300 rcf for 5 min. The resulting pellet from the spleen sample and whole human blood were treated with RBC lysis buffer (7 min) and centrifuged at 300 rcf and the RBC lysis was repeated twice more until no RBC remained in the pellet. […]
# Flow cytometry was performed on a BD LSRFortessa™ X-20 cell analyzer using BD FACSDiva Software Version 8.0.1 and data was processed using FlowJo LLC. […] The live, single cell populations were gated out with two gates to obtain the median fluorescence intensity (MFI), which indicates binding of the Siglec-Fc-secondary complex to the cell surface. Control cells that were incubated with Strep-Tactin-AF647 (0.55 μg/mL, 0.57 pmol) was used to determine the baseline fluorescence. […]
# [30] = tested on: U937 cells treated with neuraminidase; test: Pre-complexed Siglec-Fc staining of cells treated with Neu-S or Neu-A; assay type: cell-based
molecule,measurement,setting,value
B1,Siglec-7-Fc Binding,[1],9.54 and 11.2
same,"Binding, B-cells",[2],8.11 and 1.36 and 3.18
same,"Binding, Monocytes",[3],7.43 and 2.68 and 5.18
same,"Binding, T-cells",[4],2.32 and 2.93 and 4.67
same,"Binding, NK",[5],1.26 and 1.99 and 1.13
same,Siglec-Fc binding (Figure 3d),[6],70.6 and -20.5 and 24.4
same,Siglec-Fc binding (Figure 3d),[7],57.8 and 10.3 and 41.1
same,Siglec-Fc binding (Figure 3d),[8],14.1 and 38.5 and 10.3
same,Siglec-Fc binding (Figure 3d),[9],7.7 and 27 and 12.8
same,Siglec-Fc binding (Figure 3d),[10],52.4 and 51.4 and 53.1
same,Siglec-Fc binding (Figure 3d),[11],46.2 and 51.8 and 78.1
same,"Binding, Neutrophils",[12],10.1 and 1.12 and 11.5
same,Siglec-Fc binding (Figure 3d),[13],-1.28 and 37.2 and 6.04
same,Siglec-Fc binding (Figure 3d),[14],56.5 and 99 and 6.42
same,Siglec-Fc binding (Figure 3d),[15],41.1 and 57.8 and 2.57
same,binding of pre-complexed Siglec-Fc (MFI),[16],137 and 149 and 150
same,binding of pre-complexed Siglec-Fc (MFI),[17],85 and 88.7 and 91
same,binding of pre-complexed Siglec-Fc (MFI),[18],103 and 99.8 and 101
same,binding of pre-complexed Siglec-Fc (MFI),[19],129 (2×) and 134
same,binding of pre-complexed Siglec-Fc (MFI),[20],105
same,binding of pre-complexed Siglec-Fc (MFI),[21],90.2 and 95.5 and 99.5
same,binding of pre-complexed Siglec-Fc (MFI),[22],121 and 126 and 130
same,binding of pre-complexed Siglec-Fc (MFI),[23],148 and 144 and 145
same,binding of pre-complexed Siglec-Fc (MFI),[24],116 and 117 and 119
same,binding of pre-complexed Siglec-Fc (MFI),[25],155 and 154 and 158
same,binding of pre-complexed Siglec-Fc (MFI),[26],165 and 175 and 187
same,binding of pre-complexed Siglec-Fc (MFI),[27],114 and 117 and 118
same,binding of pre-complexed Siglec-Fc (MFI),[28],229 and 258 and 236
B2,CD33-Fc Binding,[29],42.3 and 56.8 and 61
same,CD33-Fc Binding,"[30]; Figure 6a, +Neu-A",106 and 114
same,CD33-Fc Binding,"[30]; Figure 6a, +Neu-S",92.4 and 95.2
same,CD33-Fc Binding,"[30]; Figure 6a, WT cells (no neuraminidase)",77.3 and 79
same,CD33-Fc Binding,"[30]; Figure 6b, +Neu-A",74 and 74.9
same,CD33-Fc Binding,"[30]; Figure 6b, +Neu-S",73 and 72.1 and 68.7
same,CD33-Fc Binding,"[30]; Figure 6b, WT cells (no neuraminidase)",77.3 and 79

# From PMC7547722, “A versatile soluble siglec scaffold for sensitive and quantitative detection of glycan ligands” (Nature Communications, 2020)
